Values of other authors in article PMC3159772.

Assays:
NTS2 (Homo sapiens) = NTS2 (Homo sapiens) (UniProt O95665)
NTS1 (Homo sapiens) = NTS1 (Homo sapiens) (UniProt P30989)
UniProt P30989, sequence (P30989 whole entry): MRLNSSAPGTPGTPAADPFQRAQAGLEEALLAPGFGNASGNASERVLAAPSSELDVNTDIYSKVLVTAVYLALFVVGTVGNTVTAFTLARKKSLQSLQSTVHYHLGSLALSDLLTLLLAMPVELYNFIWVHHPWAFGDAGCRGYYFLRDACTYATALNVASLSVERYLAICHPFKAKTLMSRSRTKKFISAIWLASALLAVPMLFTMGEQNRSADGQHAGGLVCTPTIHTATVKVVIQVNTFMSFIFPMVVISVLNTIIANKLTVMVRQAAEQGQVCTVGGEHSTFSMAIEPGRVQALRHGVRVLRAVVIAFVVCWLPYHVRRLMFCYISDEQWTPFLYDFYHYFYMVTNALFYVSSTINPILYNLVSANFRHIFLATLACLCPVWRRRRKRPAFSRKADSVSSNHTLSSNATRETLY

UniProt O95665, sequence (O95665 whole entry): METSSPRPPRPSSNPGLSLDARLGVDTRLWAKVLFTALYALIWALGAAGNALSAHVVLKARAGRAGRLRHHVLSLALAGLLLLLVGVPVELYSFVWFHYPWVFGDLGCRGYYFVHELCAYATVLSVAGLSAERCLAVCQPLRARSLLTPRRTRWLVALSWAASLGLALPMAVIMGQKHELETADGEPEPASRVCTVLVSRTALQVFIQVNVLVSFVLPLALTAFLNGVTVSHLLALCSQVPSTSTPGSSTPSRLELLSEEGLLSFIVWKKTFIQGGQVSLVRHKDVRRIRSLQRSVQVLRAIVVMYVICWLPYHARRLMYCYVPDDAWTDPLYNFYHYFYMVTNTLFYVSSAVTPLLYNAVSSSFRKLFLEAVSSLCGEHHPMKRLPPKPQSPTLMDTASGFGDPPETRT

NT69L (from UniProt P30990)
Kd (NTS2 (Homo sapiens)): 2.1 nM
Kd (NTS1 (Homo sapiens)): 3.1 nM
